Results on 14 sequences are retold here after a protein production outcome set (Wang et al. 2014).

A short description of this data set: label from the status in PepcDB records.
Regarding “MRYLLIILAFWLPLQSHAVEFDENTRFLPLGRAVQVFEDPTGTATIDSVSSPAGAQAFRPAPAGTFNAGYSRSAFWLKVELSYRPADADIHNDWLLELAYPPMDRVDFYAPDANGRPTLTWQTGDMLPFASRQFAQNNYLFQLELPPGQTRTLYVRISSEGSVQAPLNLWSTHAYLEAQPTKIYVFGLIYGVLLGMLVYNLFIYLSVREPDYLYYLLYVAAFGLYQMSINGVAIEYLWPDSPWWANASTPFLMALATLFACQFTRSFLGTVRLGRWLDRSLLTLIGAAVLVMCIALFLSYGPALRAATQLVMAGALTIYLAGIVAVVKGERVGRYFVLAWSVFMIGGLVFGLMLMGYMPNTFLTMYASHIGTLLEMAFLSMALADRINHARYQQEQTLLAYGKDLERLNQQLATSNRLKDEFLATLTHELRTPMNGVIGSLEVMQTLDMDDEVEMYQQTAASSARDMMSMINGILTLTELQAGVLYAECSAFAPVDLVDRLRERFSGAAQSKGLTLTLDLDDKLPPGIRGDAGKLYQCLECLVDNAIKFTRKGAVQVRFSGQPQDLERMYLRVEVMDSGIGFSHLDEALLYQHFLQVDGSMTREYGGLGIGLAICRKLVELQGGELSHRSEPGKGSCFTLSIPMLMAVPGAVRRAPEAKAQWGHVSRS”, the protein production entry was “failed”.

For the sequence “MRYRNSRQVTGVVKNVTVSQSCGKWYISIQAESEVSTPVHPSASMVGLDAGVAKLASLSDGTVFEPVNSFQKNQKTLARLQRQLSRKVKFSNNWQKQKRKIQRLHSCIANIRRDYLHKVTTTVSKNHVMIVIEDLKVSNMSKSAAGTVSQPGRNVRAKSGLNRSILDQGWYEMRRQLEYKQLWRGGQVLAVPPAYTSQRCACCGHTAKENRLSQSKFRCQVCGYTANADVNGARNILAAGHAVLACGEMVQSGRSLKQEPTEMIQATALEHHHHHH”, the protein production entry is listed as “failed”.

On to “MSAAQAVDDVPLEHAGNDVSDRMSLQRGVQLYMNYCVGCHSLKYLRYSRIAADLGLSEVQVMSTLNVTGAKFGDTIMTGMPVDTSEQWFGKIPPDLSLVARVRGSDWIYTYLRSFYVDSTRPLGWNNRLFVDVSMPNPLSHLQGVQRAEYGGASQAGADRLVTGLVLVQPGQQSPAEFDQTLRDIVNFLQYAAEP”, for which the protein production entry is “failed”.

As for “MSADHDEGLRRAQRLHLSGDADGAERAYRALLDDAALGAPAAHWLGFLLMQQGRLDEALAWLERVVAADDGHAEWHFNLGLVRARLGRSEEAVFALREAARRDPSRYFYWTNLGAQLMRGGQDAEAEQALRRAASLDPHCPDAFYLLTEMLLRQGRHAEARRCNAQGVLAEPPGKMAPIAVGQALCELGRSEEARSLAQSWLLAQPGHPVARHMLAAFGGGDAPADGDDEYVGCAFDAAAASFDQDLSRLRYQGPSWTAACLAGLSLAPKSLSALDLGCGTGLIGEVLQPWASRLDGVDLSAGMLARAGAKGIYDSLEQAELRAFLRQTDRTYQLIACMDTLPYLGELDALFMLLAERMAPGGLLLFCTESLEDGEAGDGRLHHSGRYRHHSRYLDRLLAVGWDVLERARMPVRDEAGCPVWGDFVCARKVFAA”, the protein production result is reported as “failed”.

Turning to “MSAEFIDSLAVMLLALGMTTAIGGMYFLFSALGNEKRIEGLLMPAVGVGLFDFMSGFVMSFTWPLPSSYNMLFGDPLLMAGLLLMISAIAYYKHYDISSVSILLFFLGIYVIIEAVGIVNYHLESGDNLLAAMGLYIVDGIAAILSPIMYIDQKKGKIAYMIEAAILIIGTLIALFIGYTAIYGHLLDFIKYFP”, the protein production entry was “failed”.

For “MSAEVETSEGVDESEKKNSGALEKENQMRMADLSELLKEGTKEAHDRAENTQFVKDFLKGNIKKELFKLATTALYFTYSALEEEMERNKDHPAFAPLYFPMELHRKEALTKDMEYFFGENWEEQVQCPKAAQKYVERIHYIGQNEPELLVAHAYTRYMGDLSGGQVLKKVAQRALKLPSTGEGTQFYLFENVDNAQQFKQLYRARMNALDLNMKTKERIVEEANKAFEYNMQIFNELDQAGSTLARETLEDGFPVHDGKGDMRKCPFYAAEQDKGALEGSSCPFRTAM”, the protein production entry is on record as “not failed”.

On to “MSAFDFNFQPSINQQDVLDFTDLRFIGKYENIVFLDSNVVSKNRISTYFIKCHHLKENLRKAKLENSLENRLKHYSKYKLLIIDEIGYLPIGSEAAKIFFQINRFKVLEHHHHHH”, for which the protein production result is recorded as “not failed”.

As for “MSAHQGSETVTFGDSSAERPLGRSIMRGMANRCPACGSGRLFRAFLKPVDACAACGEEMHHHRSDDLPPYISIVIIGHIAVGGFMMTDMILNIPMWAHFAIWVPITILAALLTLQPIKGGVIGLQWALRMHGFDRKQPKVQIDGSSH”, the protein production entry is recorded as “failed”.

As for “MSAHRPAAATPAAAAPSKRERFLSLDVFRGLTIFLMILVNTAGPGAQAYAQLTHAAWFGFTLADLVFPSFLFAVGSAMSFALATNTPHLQFLGRVSRRAALILLCGVLMYWFPFFHLQPDGGWAFTTVDQLRLTCVLQRIGLCYLAAALLVRYLPPRGIAPVCLALLLGYWALLYAFGQPGAELSKTGNAGTRLDLWLYGRDHLYRKDGGFDPEGLLGTLSATVNVLAGYLCGRFLQRHGKTIASTRSLLLAGAGLVLLALLWAPAWPLSKKLWSGSFVACTVGLDLLALGALVYLLELRGWTGGSGFFTVLGRNPLAIYLFSELFVVVLRLIPAGSSGLDLYAWAGIGVFQTIAPGPLGSLLCALSYTLMCCAVGWWMDRRRWYLRL”, the protein production entry is listed as “failed”.

Regarding “MSAISPNGAEEHPIGLTLNGQRLTLQVNPWTTLLDLLREQLDLVGTKKGCDHGQCGACTVLRDGKRVNACLTLAIMCDGAELVTIEGLASGDVLHPMQRAFITHDAFQCGYCTPGQICSAVGLAREGRAYTREAIREQMSGNLCRCGAYSNIVAAVEEALPLMTDLAPPQRGPNP”, the protein production entry is given as “failed”.

With “MSAKKLFIQTLGCAMNVRDSEHMIAELTQKENYALTEDIKEADLILINTCSVREKPVHKLFSEVGGFEKVKKEGAKIGVCGCTASHLGNEIFKRAPYVDFVLGARNISKITQAIKTPKFMGVDIDYDESEFAFADFRNSIYKSYINISIGCDKHCTYCIVPHTRGDEISIPFNIIYKEAQKAIEKGAKEIFLLGQNVNNYGKRFRNEHKKMDFSDLLEELSTIEGLERIRFTSPHPLHMDDKFLEVFANNPKVCKSMHMPLQSGSSEILKAMKRGYTKEWYLNRALKLRELCPNVSISTDIIVAFPGESEKDFEETVDVLEKVRFEQIFSFKYSKRPLTKAATMPNQIDEEIASRRLSTLQNRHSEILDKIVKKQENKTFKVLFEELRAGNSIAGRTDNNFLVQVEGSEELLGQFKEVKITNAKRMVLYGEIVLEHHHHHH”, the protein production entry is “failed”.

As for “MSALRILARFVSTRTLRIRPILEIPARCKYTQHQGVKGIRNRKSFFEAQIQAGQQGEEDADLERTANSDLADMRFLDDRAYDEVAGGAMRITRDIASSQQVLILQPYVKWAAKRQNAPVDVRPEDQLAEATALIHSLPNWQVARALKVPLESLEKKTLFGSGKLVELKELVAELRQERHLTCLFVSKGTLSFAQKRFLEAEFRLPVMDRYSVVIQILRLHATSAEAKLQVAMAELPYIWAQAKDASVTQTRRQGYALTDLQKEILRTRERKLRAELDRVRRQRQLLRQKRKQQNYPIVAVVGYTNAGKTSLIKALTVEDALQPRNQLFATLDVTAHAGCLPCNLEVIYMDTVGFMSDLPTGLFECFVATLEDAMLADVIVHVQDLSHPCHAAQRSHVEATLRSLAFNVAGGDSTASQLPPIINVYNKCDLVSQEAQSSADPVHHISARAQTGLEPLLDDIEQQILTATGRRKLQMRVPSGGPEMAWLYKNAAVVETTADAENPERLMMHVVISQRTLDQFKRQFCR”, the protein production result was “failed”.

Take “MSALSSEGFFLEKCTHFFSDKKVVFFIATLCCLLWGSAYPAIKNGYELFHIADDDIPGKLVFAGYRFAFAGLLLALAVLSGRSIGRFQRGQLAQLTILGTFQTSLQYVFFYIGLAYTTGVKGSIMNATSTFFSVLLAHYLYQNDKLNINKIIGCILGFAGVMAVNINSNGMNIGFTLLGDGFVVIAAFILSASTIYGKRISQTMDPTVMTGYQLAIGGIILTISGYCTGGSLIIPDWRAVLMLGYLILLSSAAFSLWSQLLKYNRVGMVAPFNFLIPVSGTLLSALFLNESILEWKYFFALILVCSGIWLVNRVVKTRSGK”: the protein production entry is “failed”.

Regarding “MSAPADRSFAIERIFNAPVERVFRLWTDPLLVAQWWGIRDCTIPLCVLDVRVGGRWRIDMLTAGGALYRNQGSYLEVVENVRLSYRDEPDPEIREWAGKPPGRSRHTVSFTASGARTHVHFEVTLATAADRERLLALGMRGGWMQSFDRLEQLIGKGADHAG”, the protein production entry is “failed”.
